The results in this text go back to patent US20250026813A1 (published 2025).

The assay concerns the target SARS-CoV-2 spike protein bearing furin mutation and truncation in retention sequence (on pseudoviral envelope) (SARS-CoV-2, UniProt P0DTC2 14-1273). Description: cell-based or functional assay.

B1: YANG-1301 (antibody, V domains shown)
VH: QVQLVESGGGVVQPGRSLRLSCAASGFTFSSYGMHWVRQAPGKGLEWVAVIWYDGSNKFYADSVKGRFTISRDNSKNTLYLQMNSLKAEDTAVYYCARDTWIGESDTSWLDPWGQGTLVTVSS
VL: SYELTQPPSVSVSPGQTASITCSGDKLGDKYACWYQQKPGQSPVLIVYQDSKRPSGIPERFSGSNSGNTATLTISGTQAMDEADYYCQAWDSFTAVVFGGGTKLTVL
For B1, the “PV neutralisation IC50” value turned out to be 520 pM and the “PV neutralization % (Ab 1 ug/mL)” value came to 60.4%.

B2: YANG-1401 (antibody, V domains shown)
VH: QVHLQESGPGLVKPSGTLSLTCAVSGGSFSQINWWSWVRQSPGKGLEWIGEIYHSGSTNYNPSLKSRVTMSVDKSKNQFSLALNSVTAADTAVYYCARGYYGDNWFDSWGQGTLVTVSS
VL: DIQMTQSPSSLSASIGDRVTITCRASQGISNWLVWYQQKPEKAPKSLIYAASSLQSGVPSRFSGSGSGTDFTLTISSLHPEDFATYYCQQYSDYPLTFGGGTKVEIK
With B2, the “PV neutralisation IC50” value was 530 pM and the “PV neutralization % (Ab 1 ug/mL)” value is 91.6%.

B3: YANG-1305 (antibody, V domains shown)
VH: QVQLVESGGGVVQPGKSLRLSCAASGFAFSSFGMHWVRQAPGTGLEWLAIISFEGTKKYYADSMKGRITISRDNSKNTLYLQMNSLRAEDTAVYYCAADYGDYDDYYYGVHVWGQGTTVTVSS
VL: DIQMTQSPSSLSASVGDRVTITCRASQGIANYLAWYQQKPGKVPKLLIYATSTLQSGVPSRFSGSGSGTDFTLTISSLQPEDVAIYYCQKYDSAPFTFGPGTKVDFK
For the molecule B3, the “PV neutralisation IC50” value came to 420 pM and the “PV neutralization % (Ab 1 ug/mL)” value was 60.5%.

B4: YANG-1403 (antibody, V domains shown)
VH: QVQLVESGGGVVQPGRSLRLSCAASGFTFSNYGMHWVRQAPGKGLEWVAVIWYDGSNKYYADSVKGRFTISRDNSKNTLYLQMNSLRAEDTAVYFCVRETVTDGMDVWGQGTTVTVSL
VL: NIQMTQSPSAMSASVGDRVTITCRARQDISNYLAWFQQKPGKVPKHLIYAASSLLSGVPSRFSGSGSGTEFTLTISSLQPEDFATYYCLHHNGYPWTFGQGTKVEIK
With B4, the “PV neutralization % (Ab 1 ug/mL)” value was 99.3%.

B5: YANG-1302 (antibody, V domains shown)
VH: QVQLVESGGGAVQPGRSLRLSCRASGFTFSSFGMNWVRQVPGKGLVWVAGIWYDGRNKYYADSVKGRFTISRENSKNMLYLQMNSLRAEDTAVYYCARDQDSGFDGNWFGPWGQGTMVTVSS
VL: SYELTQPPSMSVSPGQTASITCSGDNLGDKYVCWYQQRPGQSPVMVIFQDSTRPSGIPERFSGSNSGNTATLTISGTQAMDEADYYCQAWDSNTAVFGGGTKLTVL
B5: the “PV neutralisation IC50” value came to 230 pM and the “PV neutralization % (Ab 1 ug/mL)” value was 60.3%.

B6: YANG-1402 (antibody, V domains shown)
VH: EVQLVESGGGLIQPGGSLRLSCAASGVTVSSNYMNWVRQAPGKGLEWVSVIYSGGSTYYADSVKGRFTISRDNSKNTLYLQMNSLRVEDTAVYYCARDIGDYGMDVWGQGTTVTVSS
VL: DIQLTQAPSFLSASVGDRLTITCWASQGISSYLAWYQQKPGKAPKILIYAASTLQSGVPSRFSGSGSGTEFTLTISSLQPEDFATYYCQQLNSYPLIFGGGTKVEIK
As to B6, the “PV neutralization % (Ab 1 ug/mL)” value turned out to be 94.5%.

B7: YANG-1303 (antibody, V domains shown)
VH: QVQLVQSGTEMKEPGASVKVSCKASGYTFTNYGITWVRQAPGQGLEWMGWLNTNNGDTNYAQKLQGRVTMTTDTSTSTAYMELRSLRSDDTAVYYCARDSVTTYDYWGQGTLVTVSS
VL: SYELTQPPSVSVSPGQTARITCSGDALPKKYAYWFQQKSAQAPVLVIYEDSKRPSGIPERFSGSSSGTMATLTINGAQVEDEAAYYCYSLDSSGNHWVFGGGTKLTVL
As for B7, the “PV neutralization % (Ab 1 ug/mL)” value stood at 46.3%.

B8: YANG-1304 (antibody, V domains shown)
VH: QVQLQQWGAGLVKTSETLSLTCAVYGGSFNDHYWSWIRQPPGKGLEWIGEINHSGSTNYNPSLKSRVTMSLDTSKNQFSLKLRSLTAADTAMYYCAIEGIWGQGAMVTVSS
VL: SYELTQPPSVSVSPGQTARITCSGDALPIKYVHWYQQKSGQAPVLVIYEDSKRPSGIPERISGSSSGTMATLTMSGAQVEDEADYYCYSTDSSGNHWVFGGGTKLTVL
As to B8, the “PV neutralization % (Ab 1 ug/mL)” value was determined as 41.5%.
